Literature values as cited in US20240325609A1, “POLYPEPTIDE MONOLITHS” (Trustees of Tufts College, priority 2015, published 2024).

Conditions: room temperature for 14 days, not encapsulated

Which “shelf stability of HRP” value does the source give for “HRP not encapsulated in silk: free horse radish peroxidase enzyme” here?
Its value is “not shelf-stable”.
